Laboratory results reported in IntAct's records for PubMed 25613572.

B1: Chromo domain-containing protein rhino (Drosophila melanogaster (Fruit fly)), Q7JXA8 (parent)
chain: MSRNHQRPNLGLVDAPPNDHVEEYVVEKILGKRFVNGRPQVLVKWSGFPNENNTWEPLENVGNCMKLVSDFESEVFRLHRKAAAKSVGKSKSSPSSSGPLITENGPSSSKKTQQHSKSVQAKNTAGMSKMNQKKGKNIKKTAGKIKDIENYPKTQMPSTSQVSTDSTEVFDGNPSATTTNMIKSPRIQSLFSDLNLIEPTKDKDVGDTSLKTPPKSRRLIEFPQREDAPLSSKHVSPMLIRKESQPLQSSCTDDSDLGESSSSMSLPTVSSTSSEKSIKVTKSEPKTLGQIKFSSRSSDGGHAASSLGAPKEGDIGLDLSGSDSMDSEVESMRRCPRRKRKKTYPDWKFPEMTKPFGVNRGLDLDKILHCYQMNDDLFMFVTWKGCSSIDAVHINDIKEAYPLQIIKYFESLRIIVPK

Variants of: B1
Conditions: with h31_human H3C1, P68431

Variant	effect of a mutation on the interaction
W45A	disrupting interaction
F48A	disrupting interaction
F34A;F76A	decreasing interaction strength
